# Experimental data: article PMC4938386, “Calcium Influx of Mast Cells Is Inhibited by Aptamers Targeting the First Extracellular Domain of Orai1”
# T1: Orai1 peptide (first extracellular domain) (UniProt Q96D31)
# T1 chain: DADHDYPPGLL
# Key:
# [1] = target: Orai1 peptide (first extracellular domain) (UniProt Q96D31); assay: ELONA; conditions: 0.1 ug/well aptamer; lowest of six; value from stated range; SHCMK: 20 mM Hepes pH 7.35, 120 mM KCl, 1 mM CaCl2, 1 mM MgCl2; 37 C, 3 h (2 h for Kd); peptide-coated plates, wash with 0.05% Tween …
# Target sequence in this assay (Q96D31 whole entry, looked up, the tested form may be a part): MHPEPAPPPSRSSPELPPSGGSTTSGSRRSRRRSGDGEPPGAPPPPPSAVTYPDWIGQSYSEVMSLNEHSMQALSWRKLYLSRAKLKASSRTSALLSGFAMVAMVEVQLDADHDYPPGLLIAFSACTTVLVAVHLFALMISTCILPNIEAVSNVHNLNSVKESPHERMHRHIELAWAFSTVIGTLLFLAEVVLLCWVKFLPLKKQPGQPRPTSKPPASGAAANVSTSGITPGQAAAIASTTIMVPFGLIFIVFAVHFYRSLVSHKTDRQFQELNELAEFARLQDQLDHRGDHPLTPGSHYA
# [2] = target: T1, Orai1 peptide (first extracellular …); assay: ELONA; SHCMK: 20 mM Hepes pH 7.35, 120 mM KCl, 1 mM CaCl2, 1 mM MgCl2; 37 C, 3 h (2 h for Kd); peptide-coated plates, wash with 0.05% Tween 20; conditions: tags: none stated; coated on polystyrene plate; label: biotin
Molecule,binding signal [1] [OD450],binding result [2]
TGCGAGCATCTCGCTATCAGAGTGAGGTGATTTGTGCATA [Aptamer Y8],1.18,–
TAGGATCCCCAGACCTGCCCGCCATGT (ssDNA) [ONT2],–,no binding
GGTACCGCAGAATTGGGAAGAGATAGA (ssDNA) [ONT3],–,no binding
TCAAGCTTATGACCGAGCGCCGCGTGCC (ssDNA) [ONT1],–,no binding
